Experimental data from US20200317768A1 (published 2020).

B1: M103205H795-MY264/M103202L889-SK1 (antibody, human IgG1, kappa)
heavy: QVTLKESGPVLVKPTETLTLTCTVSGIDLSHDDISWVRQAPGKGLEWVGIISYAGSTYYASWAKGRLTISKDTSKNQVVLTMTNMDPVDTATYYCARGVPAYSHGGDLWGQGTLVTVSSASTKGPSVFPLAPSSKSTSGGTAALGCLVKDYFPEPVTVSWNSGALTSGVHTFPAVLQSSGLYSLSSVVTVPSSSLGTQTYICNVNHKPSNTKVDKKVEPKSCDKTHTCPPCPAPELLLGPSVFLFPPKPKDTLMISRTPEVTCVVVDVSDEDPEVKFNWYVDGVEVHNAKTKPREEQYNSTYRVVSVLTVLHQDWLNGKEYKCKVSNKALPKPIEKTISKAKGQPREPQVYTLPPSREEMTKNQVSLTCLVKGFYPSDIAVEWESNGQPENNYKTTPPVLDSDGSFFLYSKLTVDKSRWQQGNVFSCSVMHEALHNHYTQKSLSLSP
light: DIVMTQSPATLSLSPGERATLSCTSSQSVYHANWLSWFQQKPGQPPKLLIYWASTLAYGVPSRFSGSGSGTDFTLTISSLQPEDAATYYCAGGYGGGRYAFGQGTKVEIKRTVAAPSVFIFPPSDEQLKSGTASVVCLLNNFYPREAKVQWKVDNALQSGNSQESVTEQDSKDSTYSLSSTLTLSKADYEKHKVYACEVTHQGLSSPVTKSFNRGEC
notes: copies: 2 + 2
B2: M103205H795-MY265/M103202L889-SK1 (antibody, human IgG1, kappa)
heavy: QVTLKESGPVLVKPTETLTLTCTVSGIDLSHDDISWVRQAPGKGLEWVGIISYAGSTYYASWAKGRLTISKDTSKNQVVLTMTNMDPVDTATYYCARGVPAYSHGGDLWGQGTLVTVSSASTKGPSVFPLAPSSKSTSGGTAALGCLVKDYFPEPVTVSWNSGALTSGVHTFPAVLQSSGLYSLSSVVTVPSSSLGTQTYICNVNHKPSNTKVDKKVEPKSCDKTHTCPPCPAPELLTGPSVFLFPPKPKDTLMISRTPEVTCVVVDVSDEDPEVKFNWYVDGVEVHNAKTKPREEQYNSTYRVVSVLTVLHQDWLNGKEYKCKVSNKALPKPIEKTISKAKGQPREPQVYTLPPSREEMTKNQVSLTCLVKGFYPSDIAVEWESNGQPENNYKTTPPVLDSDGSFFLYSKLTVDKSRWQQGNVFSCSVMHEALHNHYTQKSLSLSP
light: DIVMTQSPATLSLSPGERATLSCTSSQSVYHANWLSWFQQKPGQPPKLLIYWASTLAYGVPSRFSGSGSGTDFTLTISSLQPEDAATYYCAGGYGGGRYAFGQGTKVEIKRTVAAPSVFIFPPSDEQLKSGTASVVCLLNNFYPREAKVQWKVDNALQSGNSQESVTEQDSKDSTYSLSSTLTLSKADYEKHKVYACEVTHQGLSSPVTKSFNRGEC
notes: copies: 2 + 2
B3: M103205H795-MY267/M103202L889-SK1 (antibody, human IgG1, kappa)
heavy: QVTLKESGPVLVKPTETLTLTCTVSGIDLSHDDISWVRQAPGKGLEWVGIISYAGSTYYASWAKGRLTISKDTSKNQVVLTMTNMDPVDTATYYCARGVPAYSHGGDLWGQGTLVTVSSASTKGPSVFPLAPSSKSTSGGTAALGCLVKDYFPEPVTVSWNSGALTSGVHTFPAVLQSSGLYSLSSVVTVPSSSLGTQTYICNVNHKPSNTKVDKKVEPKSCDKTHTCPPCPAPELLIGPSVFLFPPKPKDTLMISRTPEVTCVVVDVSDEDPEVKFNWYVDGVEVHNAKTKPREEQYNSTYRVVSVLTVLHQDWLNGKEYKCKVSNKALPKPIEKTISKAKGQPREPQVYTLPPSREEMTKNQVSLTCLVKGFYPSDIAVEWESNGQPENNYKTTPPVLDSDGSFFLYSKLTVDKSRWQQGNVFSCSVMHEALHNHYTQKSLSLSP
light: DIVMTQSPATLSLSPGERATLSCTSSQSVYHANWLSWFQQKPGQPPKLLIYWASTLAYGVPSRFSGSGSGTDFTLTISSLQPEDAATYYCAGGYGGGRYAFGQGTKVEIKRTVAAPSVFIFPPSDEQLKSGTASVVCLLNNFYPREAKVQWKVDNALQSGNSQESVTEQDSKDSTYSLSSTLTLSKADYEKHKVYACEVTHQGLSSPVTKSFNRGEC
notes: copies: 2 + 2

Columns and labels:
Experiment in all cases: SPR; KD of SG1 divided by KD of the variant;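 note: relative to parent M103205H795-SG1 carrying the SG1 human heavy chain constant region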
[1] = target: T1, human FcγRIIaH extracellular domain, His-tagged (human, UniProt P12318 34-217)
T1 construct: also called human FcgRIIaH; FcγRIIa (type H); not shown: His-tag added to the C-terminus
T1 sequence: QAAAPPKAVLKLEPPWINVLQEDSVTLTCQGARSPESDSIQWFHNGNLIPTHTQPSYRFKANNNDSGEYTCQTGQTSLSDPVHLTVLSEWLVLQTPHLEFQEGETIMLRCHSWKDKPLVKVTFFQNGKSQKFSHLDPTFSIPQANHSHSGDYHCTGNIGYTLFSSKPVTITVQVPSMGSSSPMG
Experimental: (§1) Regarding such interactions, KD values were calculated using the following 1:1 binding model described in BIACORE® T100 Software Handbook BR1006-48 Edition AE.
(§2) The behavior of interacting molecules according to the 1:1 binding model on BIACORE® can be described by Equation 1: Req=C·R max/(KD+C)+RI, wherein, Req is a plot of steady-state binding levels to analyte concentration. C is concentration, RI is bulk refractive index contribution in the sample, and Rmax is analyte binding capacity of the surface. When this equation is rearranged, KD can be expressed as Equation 2: KD=C·Rmax/(Req−RI)−C. KD can be calculated by substituting the values of Rmax, RI, and C into Equation 1 or Equation 2. From the current measurement conditions, RI=0, C=2 μmol/L can be used.
(§3) The resultant variants were expressed using M103202L889-SK1 as light chain and their affinity to human and cynoFcγRs were evaluated (Table 21).

[2] = target: T2, human FcγRIIb extracellular domain, His-tagged (human, UniProt P31994 43-217)
T2 construct: also called human FcgRIIb; not shown: His-tag added to the C-terminus
T2 sequence: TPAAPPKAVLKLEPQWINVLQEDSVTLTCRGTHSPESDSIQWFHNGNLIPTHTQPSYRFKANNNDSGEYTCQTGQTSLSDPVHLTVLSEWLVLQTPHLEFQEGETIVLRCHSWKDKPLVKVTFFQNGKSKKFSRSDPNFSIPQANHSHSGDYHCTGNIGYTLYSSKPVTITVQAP
Experimental: as §1, §2, §3

[3] = target: T3, human FcγRIIIaV extracellular domain, His-tagged (human, UniProt P08637 17-208)
T3 construct: also called human FcgRIIIaV; not shown: His-tag added to the C-terminus
T3 sequence (P08637 17-208 F176V): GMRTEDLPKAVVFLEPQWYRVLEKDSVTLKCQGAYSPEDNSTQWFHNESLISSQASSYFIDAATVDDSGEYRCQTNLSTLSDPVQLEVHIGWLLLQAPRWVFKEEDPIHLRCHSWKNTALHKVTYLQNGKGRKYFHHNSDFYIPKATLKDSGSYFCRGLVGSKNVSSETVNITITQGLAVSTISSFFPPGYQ
Experimental: as §1, §2, §3

| Binder | KD fold (SG1 = 1) [1] | KD fold (SG1 = 1) [2] | KD fold (SG1 = 1) [3] |
| --- | --- | --- | --- |
| B1 | 0.5 fold | 0.4 fold | 0.01 fold |
| B2 | 3.3 fold | 2.1 fold | 0.15 fold |
| B3 | 3.5 fold | 0.8 fold | 0.05 fold |
